Assay results from article PMC3294146.

Tests used:
[1] = target: Co-hArgI-C^PEG-20K (hArgI-C conjugated at the N-terminal Cys to 20 KDa PEG-maleimide) (human); experiment: SEC
[2] = target: human Arginase I with an engineered N-terminal Cys residue (hArgI-C), not PEGylated (human); experiment: SEC

Row | Substance | stoichiometry N [1] | percent dimeric [2] | percent monomeric [2]
1 | Co-hArgI-C^PEG-20K (hArgI-C conjugated at the N-terminal Cys to 20 KDa PEG-maleimide) (enzyme) | 3 | – | –
2 | human Arginase I with an engineered N-terminal Cys residue (hArgI-C), not PEGylated (enzyme) | – | 10% | 90%
